Among the data in US20200377555A1 (Janssen / Centocor, published 2020) are Kd and EC50 values, retold here.

In one experiment the target is UFV5369 (influenza A H1N1 A/California/07/09).
Experiment [1] concerns the target T1, UFV160665 (influenza A H1N1 A/California/07/09).
Experiment [2] addresses T2, UFV160664 (influenza A H1N1 A/California/07/09).
In experiment [3] the target is T3, UFV160655 (influenza A H1N1 A/Brisbane/59/07).
Experiment [4] has as its target T4, UFV160656 (influenza A H1N1 A/California/07/09).
Experiment [5] deals with T1, UFV160665. The experiment is described as follows: ELISA, polypeptide coated, antibody titrated; average of 3 independent assays.
Experiment [6] addresses T2, UFV160664. The description is as above.
In experiment [7] the target is T3, UFV160655. The description is as above.
Experiment [8] addresses T4, UFV160656. Described as above.

B1: CR6261 (antibody, V domains shown)
VH: EVQLVESGAEVKKPGSSVKVSCKASGGPFRSYAISWVRQAPGQGPEWMGGIIPIFGTTKYAPKFQGRVTITADDFAGTVYMELSSLRSEDTAMYYCAKHMGYQVRETMDVWGKGTTVTVSS
VL: QSVLTQPPSVSAAPGQKVTISCSGSSSNIGNDYVSWYQQLPGTAPKLLIYDNNKRPSGIPDRFSGSKSGTSATLGITGLQTGDEANYYCATWDRRPTAYVVFGGGTKLTVLG
Take B1: the Kd worked out at 0.97 nM with UFV5369; 0.56 nM with UFV160665 [1]; 0.57 nM with UFV160664 [2]; 0.55 nM with UFV160655 [3]; 0.6 nM with UFV160656 [4]. The EC50 was 0.425 nM with UFV160665 [5], 0.395 nM with UFV160664 [6], 0.396 nM in the experiment with UFV160655 [7] and 0.432 nM with UFV160656 [8].
